Assay results from US20110002929A1 (published 2011).
Residue numbers refer to the chain shown, from its start.

T1: human RANK-L (human, UniProt O14788 140-317)
T1 chain: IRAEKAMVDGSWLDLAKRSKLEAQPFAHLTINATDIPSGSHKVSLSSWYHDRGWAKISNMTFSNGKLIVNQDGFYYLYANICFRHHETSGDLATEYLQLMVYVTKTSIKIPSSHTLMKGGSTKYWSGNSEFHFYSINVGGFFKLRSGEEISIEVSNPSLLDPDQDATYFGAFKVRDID

B1: RANKL13hum5 (VHH)
VHH: EVQLVESGGGLVQPGGSLRLSCAASGFTFSSYPMGWFRQAPGKGREFVSSITGSGGSTYYADSVKGRFTISRDNAKNTLYLQMNSLRPEDTAVYYCAAYIRPDTYLSRDYRKYDYWGQGTLVTVSS
B2: RANKL13 (VHH)
VHH: B1 VHH with P14A, F27R, S30R, G44E, S49A, L79V, Y95S, L121Q
B3: RANKL13hum5_D62E (VHH)
VHH: B1 VHH with D62E

Target: T1, human RANK-L
Test: AlphaScreen competition

Binder	IC50 [nM]
B1	0.167
B2	0.228
B3	0.156
